From patent US12428485B2, “Compositions and methods to block and bind CCR2 to modulate cellular function” (The Research Foundation for The State University of New York, priority 2019, dated 2025) come the findings set out here.

For assay [1], the system named is TNBCs in the mammary fat pads. In words: TNBC tumor growth, dual epitope blocking. In kind it is in vivo, female BALB/c mice. The following applies: scFvs 1 mg/kg, SMA 2 mg/kg, tail vein, days 7, 9, 12, 14, 16, 18. The procedure: Further, we evaluated the effect of dual epitope blocking of CCCR2 on tumor growth. TNBCs were injected into the mammary fat pads of female BALB/c mice. Treatment of tumored mice started on days 7, 9, 12, 14, 16, and 18. To enhance the circulation half-life of the NTD-scFv and ECL2-scFv, we used site-directed mutagenesis to introduce a cysteine at the C-terminus of the scFvs for covalent attachment of a PEG-maleimide with molecular weight of 20 kDa. Animals (n=10 per group) were systemically (via tail vein injection) treated with (1) PBS, (2) CCR2-small molecule antagonist (SMA), (3) PEG(20K)-NTD-scFv, (4) PEG(20K)-ECL2-scFv, and (5) a NTD and ECL2 combo (co-dosing of PEG(20K)-NTD-scFv and PEG(20K)-ECL2-scFv).

The test system of assay [2] is triple-negative breast cancer (TNBC) tumors. In words: Flow cytometry of immune cells in harvested TNBC tumors. The format is in vivo, BALB/c mice. The text has this:
At study completion, the tumors were harvested, digested, and single cell suspensions stained for immune cells. Dual-epitope blocking of CCR2 reduced TAMs, MDSCs, and M2-Macrophages and increased M1-Macrophages in triple-negative breast cancer (TNBCs).
We observed that dual-epitope scFv combination treatment outperforms small molecule CCR2 antagonist (SMA) and decreased tumor-associated macrophages (TAMs), myeloid-derived suppressor cells (MDSCs), and M2-macrophages and increased M1-macrophages. Single cell suspension from the harvested tumors were analyzed by flow cytometry. The cells were stained for (A) CD68+ TAMs, (B) MDSCs, (C) MHC class II macrophages (M1), and (D) CD206+ macrophages (M2).
Treatment groups included: PBS, CCR2 small molecule antagonist (SMA), PEG(20K)-ECL2-scFv, PEG(20K)-NTD-scFv, and NTD & ECL2 combination (co-dosing of PEG(20K)-ECL2-scFv and PEG(20K)-NTD-scFv), with *p<0.05, **p<0.01, and ***p<0.001 by one-way ANOVA followed by Tukey's post-test.
Background: Flow cytometry measures light scatter and fluorescence of single cells or particles in a stream.

Assay [3] concerns RAW 264.7 mouse macrophages. In words: Macrophage polarization, RT-PCR of M1/M2 marker genes, RAW 264.7. In kind it is cell-based. To be noted: RAW 264.7, 24 h; LPS 100 ng/mL, IL-4 20 ng/mL, 58C-scFv 1 μM. The protocol: RAW 264.7 mouse macrophages were incubated with either LPS (100 ng/mL), IL-4 (20 ng/mL; PeproTech, Rocky Hill, NJ), or 58C-scFv (1 μM) for 24 h. For the multivalency studies, RAW 264.7 mouse macrophages were first incubated with IL-4 (20 ng/mL) for 24 h to stimulate an M2 phenotype. Following the 24 h incubation, fresh media with 58C-scFv (89 nM) was added to the cells and incubated for an additional 24 h. Total RNA was isolated with QIAzol lysis reagent (Qiagen, Germany) and total cDNA was generated using the New England Biolabs first stand synthesis kit (Ipswich, MA). RNA expression was detected by reverse transcription (RT)-PCR performed with the SYBR Green PCR kit (Qiagen). For each sample, the ΔΔCt value was calculated. Experiments were performed in triplicate. […]
To assess the effects of the anti-CCR2 scFvs on macrophage polarization, RAW 264.7 and bone marrow-derived macrophages (BMDMs) were treated with NTD-scFv and ECL2-scFv. […] To determine whether these changes were additive, synergistic, or antagonistic, the combination indices (CI) were calculated for NTD-scFv and ECL2-scFv by treating cells with a combination of NTD-scFv and ECL2-scFv. CI was calculated by: CI=(CA,X/ICX,A)+(CB,X/ICX,B), where CA,X and CB,X are the concentration of drug A (in this case NTD-scFv) and B (here, ECL2-scFv) used in combination to achieve x % drug effect. […]

A further assay addresses T1, human CCR2 (Homo sapiens, UniProt P41597).
T1 construct: endogenous in cells; host or cells: MDA-MB-231 human breast cancer cells
In words: Cross-reactivity with human CCR2. The format is binding.

The next assay has as its system 4T1 breast cancer cells. In words: Cell binding by flow cytometry, 4T1. The following applies: MFI. The source says:
FIG. 16. ECL2-scFv binding to the ECL2 domain of the CCR2 chemokine receptor.

Assay [4] deals with RAW 264.7 macrophage cells. Description: Cell binding analysis by flow cytometry, RAW 264.7. More on the design: species or system mouse. To be noted: fluorescently labeled scFv. The procedure:
FIG. 13. Binding of monomeric 58C-scFv (circles), low valency 58C-scFv attached to liposomes (triangles), and high valency 58C-scFv attached to liposomes (squares) to RAW 264.7 macrophage cells as determined by flow cytometry. […] The liposomes were incubated with DyLight 650 NHS Ester labeled 58C-scFv at 4° C. overnight. Cells were detached with 5 mM EDTA and re-suspended in PBS to a concentration of 50,000 cells per 300 μL. The cells were incubated with various dilutions of DyLight 650 NHS Ester labeled 58C-scFv (free, low degree of valency, or high degree of valency) for 1 h at 4° C. Cells were washed three times with 5% BSA and analyzed in the APC channel of a MACSQuant Analyzer 10 flow cytometer (Miltenyi Biotec, Bergisch Gladbach, Germany).
Cells were detached with 5 mM EDTA and re-suspended in PBS to a concentration of 50,000 cells per 300 μL. Cells were plated in a 48-well plate and incubated for 30 min at 4° C. After removing the PBS solution, the cells were incubated with various dilutions of DyLight 650 NHS Ester labeled 58C-scFv for 1 h at 4° C. Cells were washed three times with 5% BSA, detached with EDTA, and analyzed in the APC channel of a MACSQuant Analyzer 10 flow cytometer (Miltenyi Biotec, Bergisch Gladbach, Germany).

T1 sequence (P41597 whole entry): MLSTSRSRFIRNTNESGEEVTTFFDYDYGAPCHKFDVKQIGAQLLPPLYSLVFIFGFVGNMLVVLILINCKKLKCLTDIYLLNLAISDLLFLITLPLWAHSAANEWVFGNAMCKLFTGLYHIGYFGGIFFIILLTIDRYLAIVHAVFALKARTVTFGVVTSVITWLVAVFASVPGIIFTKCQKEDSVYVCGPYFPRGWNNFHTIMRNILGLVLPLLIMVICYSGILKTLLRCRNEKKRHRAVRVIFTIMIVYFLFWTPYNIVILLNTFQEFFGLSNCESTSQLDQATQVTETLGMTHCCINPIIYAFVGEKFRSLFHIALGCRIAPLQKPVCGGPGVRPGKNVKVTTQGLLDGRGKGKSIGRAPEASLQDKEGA

Take `Cc1ccc2c(c1)C1(CCN(CCc3nc(-c4ccccc4)oc3C)CC1)OC(=O)N2` [RS 504393]: the “reduction in tumor volume, order among treatment groups” value in assay [1] is “weakest effect”. Also, the “effects on TAMs, MDSCs, M1 and M2 macrophages compared to PBS control” value in assay [2] (FIG. 24A-D, SMA 2 mg/kg) is “not significant”. Further, the “change in Tregs, CD8+ and CD4+ T cells compared to PBS treated mice” value in assay [2] (flow cytometry) is given as “no statistically significant reduction”.

B1: IL-4: interleukin, M2 promoting agent (protein, UniProt P05112 25-153, looked up)
Interleukin-4: HKCDITLQEIIKTLNSLTEQKTLCTELTVTDIFAASKNTTEKETFCRAATVLRQFYSHHEKDTRCLGATAQQFHRHKQLIRFLKRLDRNLWGLAGLNSCPVKEANQSTLENFLERLKTIMREKYSKCSS
As to B1, in assay [3], the “macrophage polarization, M1/M2 gene expression compared to the untreated control” value is “increased both Arg-1 and Mgl2 gene expression”.

B2: ECL2-scFv: scFv against the 2nd extracellular loop (ECL2) of CCR2; Example 3 names scFv 4h, SEQ ID NO:6 (protein, listed as Homo sapiens)
scFv: MKKTAIAIAVALAGFATVAQADYKDDDDKLQSVLTQPPSASGTPGQRVTISCSGSSSNIGSHTVNWYQQLPGTAPKLLIYRNNQRPSGVPDRFSGSKSGTSASLAISGLRSEDEADYYCAAWDDSLSGVVFGGGTKLTVLGEGKSSGSGSESKASQVTLKESGAEVKKPGASVKVSCKASGYTFTNFYIHWVRRAPGQGLEWMGIINPSDGRTTYAQKFQGRVTMTRDTSTSTLYMELTSLRSEDTAVYYCGRGGHYSNYFGQPSTWGQGTLVTVSSVEAS
Regarding B2, in the assay with human CCR2, the “cross-reactivity, binding to human CCR2” value is given as “bind to human CCR2”. The “binding to 4T1 breast cancer cells” value with 4T1 breast cancer cells was “binds”. The “binding to RAW 264.7 cells” value in assay [4] is reported as “binds”.
